Laboratory results published in patent publication US20040014191A1, “Nitroreductase enzymes” (priority 1999, published 2004).
Where two headings read alike, the source gives them in different places.

Assays:
[1] = system: Cc1cc2nc3c(=O)[nH]c(=O)nc-3n(C[C@H](O)[C@H](O)[C@H](O)COP(=O)(O)OP(=O)(O)OC[C@H]3O[C@@H](n4cnc5c(N)ncnc54)[C@H](O)[C@@H]3O)c2cc1C; test: purified protein, by the assay type
Protocol: Quantitative assays using CB 1954 or SN 23862 as substrate were carried out at 37° C. by HPLC as previously described (2) (3). […] Incubation times varied according to the enzyme activity being studied.

[2] = Nitroreductase enzyme assay with CB 1954 as substrate (HPLC); type: biochemical; settings: for CB1954 (product formed / activity): Table 2, recombinant B. subtilis enzymes, crude lysates
[3] = Quinone reductase assay with menadione, cytochrome c as terminal electron acceptor; type: biochemical; settings: for Quinone reductase: Table 6
Protocol: (§1) Assays were carried out spectrophotometrically at 37° C. in 10 mM Tris pH 7.5 using cytochrome c as terminal electron acceptor.

[4] = type: biochemical; settings: Table 6
[5] = Flavin reductase assay with FMN and FAD; type: biochemical; settings: for Flavin reductase: Table 6
Protocol: as §1

[6] = system: recombinant enzymes (antigens); test: Polyclonal antisera titres by ELISA; type: binding; settings: rabbit antiserum; for Post-boost titre: 10 days after booster; for Pre-boost titre (50%): after 8 weeks
Protocol: Polyclonal antisera were raised against recombinant enzymes by immunising rabbits with […] of protein in 50% PBS:50% Freund's complete adjuvant, total volume 400 μl. Blood was collected by ear bleed after 6-8 weeks and again 10 days after a booster immunisation of protein, and titre assessed by ELISA. 96-well plates were coated with 1 μg ml^−1 of the proteins and blocked with 10% v/v foetal calf serum (FCS), antibodies were diluted in assay buffer (1% FCS) and applied in doubling dilutions across the plate from 1 in 100 to 1 in 51 200 or 1 in 150 to 1 in 76 800. A secondary antibody conjugated with HRP (dilution 1 in 10 000) was used to develop the assay with 3,3′,5,5′-tetramethylbenzidine (TMB) as substrate.
Antisera to E. coli B NfnB and six novel proteins (Haemophilus influenzae and Campylobacter jejuni NfnB homologues, YdgI and YodC of Bacillus subtilis, YwrO of B. amyloliquefaciens and Porphyromonas gingivalis YwrO homologue) have been raised in rabbits by inoculation with 100 μg of protein in PBS+ Freund's complete adjuvant. Titres were assessed by ELISA after 8 weeks, and 10 days after a booster inoculation of a further 100 μg of protein per rabbit. Pre-immune sera were also tested.
96 well plates were coated overnight at 4° C. with the antigens at 1 μg/ml. After washing and blocking antisera were added in doubling dilutions in an appropriate range across the plates. The plates were developed using goat anti-rabbit IgG peroxidase conjugate with TMB as substrate, and read at 450 nm.

[7] = Nitroreductase enzyme assay with SN 23862 as substrate (HPLC); type: biochemical; settings: for SN23862 (activity): Table 2, recombinant B. subtilis enzymes, crude lysates; for SN 23862 acitvity, second number of the cell (kcat) / Km: Table 6, HPLC assay; for Km: read-out: SN 23862 acitvity, first number of the cell (Km); for SN 23862 acitvity: Table 6
[8] = type: biochemical; settings: Table 6; remark: listed apart in the source
[9] = other: cofactor NADH, 37° C., 10 mM Tris pH 7.5, pH 7.5
[10] = Table 6, 37° C., read-out: Km CB 1954

Molecule | reduction of CB1954: activity and product formed [2] | CB1954 (product formed / activity) [2] | CB 1954 product ([2]; Table 6, recombinant enzymes) | Azo-Reductase [4] | Post-boost titre [6] | Pre-boost titre (50%) [6] | activity with SN23862 [7] | SN23862 (activity) [7] | Cofactor [8] | further results
YodC (Bacillus subtilis subsp. subtilis str. 168) | – | – | – | – | – | – | – | – | – | Km [1, 9]: 0.6 ± 0.1 µM; kcat [1, 9]: 269 ± 4.9 s⁻¹; kcat/Km [1, 9]: 4.48e+08 M⁻¹ s⁻¹; Km ([1]; other: cofactor NADPH, 37.0 °C): 2.4 ± 0.3 µM; kcat ([1]; other: cofactor NADPH, 37.0 °C): 283 ± 7.4 s⁻¹; kcat/Km ([1]; other: cofactor NADPH, 37.0 °C): 1.18e+08 M⁻¹ s⁻¹
YodC: nitroreductase from B. subtilis, SEQ ID NO: 12 (coded for by SEQ ID NO: 11) (protein, listed as Bacillus subtilis) MTNTLDVLKARASVKEYDTNAPISKEELTELLDLATKAPSAWNLQHWHFTVFHSDESKAELLPVAYNQKQIVESSAVVAILGDLKANENGEEVYAELASQGYITDEIKQTLLGQINGAYQSEQFARDSAFLNASLAAMQLMIAAKAKGYDTCAIGGFNKEQFQKQFDISERYVPVMLISIGKAVKPAHQSNRLPLSKVSTWL | both the 2HX and 4HX derivatives | 2/4HX | 4HX | Yes | 7500 | 3700 | active against both CB1954 and SN23862 | active | NADPH | kcat (CB 1954) [2]: 58.0 s⁻¹; kcat for CB1954 (text) [2]: 58 s⁻¹; Km [2, 10]: 552 µM; kcat for CB1954 (text) ([2]; listed as SEQ ID NO: 11): about 15; activity with menadione / quinone reductase [3]: high affinity for menadione and flavins; Quinone reductase [3]: Yes; flavin reductase activity [5]: high affinity for menadione and flavins; Flavin reductase [5]: Yes; SN 23862 acitvity, second number of the cell (kcat) [7]: 53.1; Km [7]: 957 µM
H. pylori: nitroreductase from Helicobacter pylori, SEQ ID NO: 29 (protein, listed as Helicobacter pylori) MKFLDQEKRRQLLNERHSCKMFDSHYEFSSEELEEIAEIARLSPSSYNTQPWHFVMVTNKDLKKQIAAHSYFNEEMIKSASALMVVCSLKPSELLPTGHYMQNLYPESYKVRVIPSFAQMLGVRFNHSMQKLESYILEQCYIAVGQICMGVSLMGLDSCIIGGFDPLKVGEVLEERINKPKIACLIALGKRVAEASQKSRKSKVDAITWL | – | – | 4 > 2HX | No | – | – | weak activity with SN23862 | – | NADPH | reduction of CB1954: activity and product formed ([2]; listed as H. pylori NfnB homologue): form the 4HX reduction product of CB1954; reduction of CB1954: activity and product formed ([2]; listed as Helicobacter pylori enzyme): mixture of the 2 and 4HX; SN 23862 acitvity [7]: Weak
YrkL: nitroreductase from B. subtilis, SEQ ID NO: 6 (protein, listed as Bacillus subtilis) MKTLVIVIHPNLETSVVNKTWMNRLKQEKDITVHDLYGEYPNFIIDVEKEQQLLLDHERIVFQFPMYWYSSPALLKQWEDDVLTHGWAYGTGGTKLHGKELLLAISSGAQESDYQAGGEYNITISELIRPFQVTANYIGMRFLPAFTQYGTLHLSKEDVKNSAERLVDYLKAEH | no activity | inactive | – | – | – | – | no activity | inactive | – | –
Synechocystis: nitroreductase from Synechocystis sp PCC 6803, SEQ ID NO: 19 (protein, Synechocystis PCC6803) MDTFDAIYQRRSVKHFDPDHRLTAEEERKLHEAAIQAPTSFNIQLWRFLIIRDPQLRQTIREKYGNQAQMTDASLLILVAADVNAWDKDPARYWRNAPREVANYLVGAIAFYGGKPQLQRDEAQRSIGMAMQNLMLAAKAMGYDSCPMIGFDLQKVAELVKLPADYAIGPMVAIGKRTEDARAKGGQTPLEELVWENSFA | only the relatively non-toxic 2HX derivative | – | 2HX | No | – | – | show activity with SN23862 | – | NADPH | SN 23862 acitvity [7]: Weak
Rat DTD: rat DT-diaphorase enzyme (protein, UniProt P05982 2-274, looked up) NAD(P)H dehydrogenase …: AVRRALIVLAHAERTSFNYAMKEAAVEALKKKGWEVVESDLYAMNFNPLISRNDITGEPKDSENFQYPVESSLAYKEGRLSPDIVAEQKKLEAADLVIFQFPLYWFGVPAILKGWFERVLVAGFAYTYATMYDKGPFQNKKTLLSITTGGSGSMYSLQGVHGDMNVILWPIQSGILRFCGFQVLEPQLVYSIGHTPPDARVQVLEGWKKRLETVWEESPLYFAPSSLFDLNFQAGFLLKKEVQEEQKKNKFGLSVGHHLGKSIPADNQIKARK | – | – | – | – | – | – | – | – | – | CB1954 kcat ([2]; Table 1): 0.07 s⁻¹; CB 1954 product ([2]; Table 1, purified enzymes): 4HX; SN23862 Km ([7]; Table 1): inactive; SN23862 kcat ([7]; Table 1): inactive
Bs YwrO: nitroreductase from B. subtilis, SEQ ID NO: 4 (protein, listed as Bacillus subtilis) MKILVLAVHPHMETSVVNKAWAEELSKHDNITVRDLYKEYPDEAIDVAKEQQLCEEYDRIVFQFPLYWYSSPPLLKKWQDLVLTYGWAFGSEGNALHGKELMLAVSTGSEAEKYQAGGANHYSISELLKPFQATSNLIGMKYLPPYVFYGVNYAAAEDISHSAKRLAEYIQQPFV | inactive with either CB 1954 or SN 23862 | 4HX | – | – | – | – | inactive with either CB 1954 or SN 23862 | inactive | – | reduction of CB1954: activity and product formed ([2]; listed as B. subtilis YwrO): converts CB1954 to the 4HX derivative alone; activity with SN23862 ([7]; listed as B. subtilis YwrO): inactive against SN23862
E. coli BNfnB (protein) MDIISVALKRHSTKAFDASKKLTPEQAEQIKTLLQYSPSSTNSQPWHFIVASTEEGKARVAKSAAGNYVFNERKMLDASHVVVFCAKTAMDDVWLKLVVDQEDADGRFATPEAKAANDKGRKFFADMHRKDLHDDAEWMAKQVYLNVGNFLLGVAALGLDAVPIEGFDAAILDAEFGLKEKGYTSLVVVPVGHHSVEDFNATLPKSRLPQNITLTEV | – | – | – | – | 11000 | 1300 | – | – | – | –
C. jejuni NfnB: nitroreductase from Campylobacter jejuni, SEQ ID NO: 23 (protein, listed as Campylobacter jejuni) MKKELEIFSTRYSCRNFKNEKLKKEDLNSILEIARLSPSSLGLEPWKFIVVQDEKRKEELSKICNQQKHVKDCAALIIIISRLDFLDYFEEKLRKRDMSETEMQKRLDTYMPFLKSLNQEQKISYAREQAHIALASILYSANALNIASCTIGGFDKEKLDSYLSLDIQKERSSLVVALGYCNDKKNPQKNRFSFDEVVKFI | only the 4HX reduction product | – | 4HX | Yes | 2500 | 1100 | active with SN23862 | – | NADPH | kcat (CB 1954) [2]: 6.1 s⁻¹; kcat for CB1954 (text) [2]: 11.2 s⁻¹; Km [2, 10]: 217 µM; Km ([2]; read-out: Km for CB1954): 143 µM; activity with menadione / quinone reductase [3]: can use the quinone menadione as substrate; Quinone reductase [3]: Yes; Flavin reductase [5]: Yes; flavin reductase activity ([5]; listed as C. jejuni NfnB homologue): can use the quinone menadione as substrate as well as azodyes and the flavins FMN and FAD; flavin reductase activity ([5]; listed as C. jejuni protein): high affinity for both FAD and FMN; SN 23862 acitvity, second number of the cell (kcat) [7]: 6.4; Km [7]: 224 µM
YdeQ: nitroreductase from B. subtilis, SEQ ID NO: 8 (protein, listed as Bacillus subtilis) MDHMKTLVLVVHPNIESSRINKKWKEAVLSEPDVTVHDLYEKYRDQPIDVEFEQQQLLAHDRIVFQFPLYWYSSPPLLKQWFDEVFTFGWAHGPGGNKLKGKEWVTAMSIGSPEHSYQAGGYNLFSISELTKPFQASAHLVGMTYLPSFAEYRANTISDQEIAESANRYVKHITNIELNPKVRLQRYLKQLESVDLT | no activity with prodrugs | inactive | – | – | – | – | no activity with prodrugs | inactive | – | –
